Measurements taken from patent US20090092555A1 (published 2009).

Assays:
[1] = target: the molecule itself; experiment: Superose 12 gel filtration
Source text: N-terminal Deletion—The Del-8 mutant lacks the first 8 N-terminal amino acids of PlyCB but retains full binding activity. Formation of a stable octamer is confirmed by comparing the elution profile of the Del-8 PlyCB mutant on a Superose 12 gel to Bio-Rad gel filtration standards. Accordingly, the N-terminal region can be completely deleted and not affect formation of the stable octamer. Given the non-structural role of this sequence, this region can be modified or engineered.

[2] = target: T1, PlyCA (heavy chain of the streptococcal C1 bacteriophage lysin PlyC) (streptococcal C1 bacteriophage, UniProt Q7Y3F1 2-465); experiment: native PAGE against SDS/PAGE (two bands, PlyCA and PlyCB); N-terminal sequencing of the native band gives both chains
T1 construct: One PlyCA for eight PlyCB in the holoenzyme (about 114 kDa by gel filtration); also called PlyC heavy chain; plyCA gene product
T1 sequence (looked up): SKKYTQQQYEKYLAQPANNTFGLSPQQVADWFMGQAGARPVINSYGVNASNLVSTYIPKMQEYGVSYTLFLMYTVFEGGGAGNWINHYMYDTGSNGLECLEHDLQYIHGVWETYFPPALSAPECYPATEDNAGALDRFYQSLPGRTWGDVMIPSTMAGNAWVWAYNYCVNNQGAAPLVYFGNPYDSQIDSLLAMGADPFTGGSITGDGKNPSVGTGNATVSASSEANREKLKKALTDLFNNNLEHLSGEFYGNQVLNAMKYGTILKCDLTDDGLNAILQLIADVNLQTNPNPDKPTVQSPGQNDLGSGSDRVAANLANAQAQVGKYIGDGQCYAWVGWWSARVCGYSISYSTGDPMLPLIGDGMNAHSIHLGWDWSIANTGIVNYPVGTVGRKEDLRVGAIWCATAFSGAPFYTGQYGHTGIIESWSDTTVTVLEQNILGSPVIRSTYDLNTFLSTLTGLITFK
Source text: PlyC Consists of a Heavy Chain (PlyCA) and a Light Chain (PlyCB)—PlyC purified from C₁ bacteriophage lysates behaves as a homogeneous protein on native-gel electrophoresis (FIG. 1A). Moreover, this protein band is responsible for the lytic activity, as observed by formation of a clearing zone on an overlay of streptococci-embedded agarose (FIG. 1B). […] N-terminal sequencing of the PlyC heavy and light chains results in two unique sequences ([…] and […], respectively), and sequencing of the native band results in a dual sequence, which corresponds exactly to both chains.
Expression and Purification of the PlyC Clone—PlyC is induced with 0.5% arabinose overnight from XL1-blue/pBAD24::plyC cultures. Cells are washed in 20 mM phosphate buffer at pH 7.0 and are lysed with 20% wt/vol chloroform to yield crude PlyC. Alternatively, group C streptococci are infected with the C1 bacteriophage as previously described (Nelson et al., 2001), and phage-produced PlyC are isolated from the crude lysate. Purification of the phage-derived enzyme and the recombinant enzyme are identical to previously described methods (Nelson et al., 2001). Purified enzymes are routinely stored in PBS at 4° C. and are stable for several months. Purification of the individually expressed heavy and light chains use the same column-chromatography methods as the native enzyme. […]

[3] = target: the molecule itself; experiment: gel filtration, with and without 0.1% SDS

B1: Del-8 PlyCB mutant (8 amino acid N-terminal deletion of PlyCB), monomer (other)
chain: NVSGVQGFLFHTDGKESYGYRAFINGVEIGIKDIETVQGFQQIIPSINISKSDVEAIRKAMKK
notes: Monomer, used for the entry on self-assembly into the octamer; also called N-terminal deletion variant of PlyCB
binding result [1]: binds

B2: PlyCB octamer (wild-type) (other)
chain: SKINVNVENVSGVQGFLFHTDGKESYGYRAFINGVEIGIKDIETVQGFQQIIPSINISKSDVEAIRKAMKK
notes: Ring of eight identical PlyCB monomers, about 64 kDa; the partner of PlyCA in the PlyC holoenzyme; also called octameric protein
binding result [2]: binds

B3: PlyCB monomer (wild-type, light chain of the streptococcal C1 bacteriophage lysin PlyC) (other)
chain: SKINVNVENVSGVQGFLFHTDGKESYGYRAFINGVEIGIKDIETVQGFQQIIPSINISKSDVEAIRKAMKK
notes: also called PlyC light chain; plyCB gene product
binding result [3]: binds
